The assay deals with triple-phosphorylated Schizosaccharomyces pombe Dss1, fluorescein-labelled on the C-terminal cysteine (S. pombe) (UniProt O14140). The assay is described as follows: MST.

B1: FHA domain of Schizosaccharomyces pombe Dma1 (residues 25-160) (domain or fragment)
chain: DKISIRLTNFVGPNAHSFSFDPLVRYWNRKQNNLPIYIGRYTERYNGGDVSAIVFRSKVVSRRHAQIFYENNTWYIQDMGSSSGTFLNHVRLSPPSKTSKPYPISNNDILQLGADYRGGHEVNYRCVRARVELNNS
As to B1, the Kd was found to be 1300 nM. In other words, the single-digit micromolar range.

The Kd is the free concentration of one partner at which half of the binding sites on the other are occupied at equilibrium, for simple one-to-one binding. High values mean lower affinity, low ones higher affinity.

These data come from paper PMC10443397.
